Results published in the supplement of paper PMC10567573.

B1: ZNF449 (parent)
chain: TLHQRTHTEERPFKCNYCGKSFRQ
B2: VTI1B (parent)
chain: NKLLLSIIILLELAILGGLVYYKF

Variants of: B1
Experiment: protein stability index of a GFP-peptide fusion (GPS, HEK-293T) (PSI 1-6); higher = more stable
Conditions: c terminus: a fixed tail appended
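Also: lentivirally expressed fusions sorted by FACS into six bins by GFP to DsRed ratio, PSI derived from sequencing read proportions per bin multiplied by bin number.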

Row | Variant | protein stability index
1 | Y17L | 2.15
2 | Y17P | 2.98
3 | Y17S | 2.55
4 | Y17Q | 3.16
5 | Y17D | 2.09
6 | Y17A | 1.93
7 | Y17N | 3.21
8 | Y17R | 2.92
9 | Y17M | 2.4
10 | Y17F | 2.22
11 | Y17V | 2.32
12 | Y17E | 2.3
13 | Y17I | 2.14
14 | Y17C | 2
15 | Y17W | 2.61
16 | Y17K | 2.67
17 | Y17T | 2.62
18 | C18Y | 2.43
19 | C18H | 2.96
20 | C18M | 2.72
21 | C18P | 2.91
22 | C18A | 3.61
23 | C18F | 2.85
24 | C18K | 3.12

Row | Variant | protein stability index
25 | C18D | 3.48
26 | C18I | 2.92
27 | C18V | 2.12
28 | C18E | 3.78
29 | C18S | 3.17
30 | C18G | 3.02
31 | C18T | 3.4
32 | C18W | 2.33
33 | C18L | 2.61
34 | C18N | 3.68
35 | C18Q | 2.26
36 | C18R | 3.38
37 | S21K | 2.32
38 | S21T | 2.91
39 | S21N | 2.69
40 | S21E | 3.13
41 | S21I | 2.26
42 | S21V | 2.29
43 | S21D | 2.75
44 | S21F | 1.68
45 | S21L | 3.6
46 | S21P | 2.15
47 | S21C | 2.02
48 | S21G | 1.82

Row | Variant | protein stability index
49 | S21Q | 2.27
50 | S21H | 2.58
51 | S21A | 1.92
52 | S21W | 2.29
53 | S21R | 2.38
54 | S21M | 2.19
55 | K14Y | 1.93
56 | R23T | 2.7
57 | R23D | 3
58 | R23W | 2.29
59 | R23N | 2.35
60 | R23L | 2.4
61 | R23M | 2.8
62 | R23A | 2.69
63 | R23C | 4.7
64 | R23V | 2.15
65 | R23H | 2.79
66 | R23F | 2.21
67 | R23K | 2.97
68 | R23S | 2.67
69 | R23P | 2.58
70 | R23G | 2.27
71 | R23I | 3.2
72 | R23Y | 2.72

Row | Variant | protein stability index
73 | R23E | 3.53
74 | R23Q | 2.16
75 | C15N | 3.41
76 | C15L | 1.4
77 | C15G | 3.43
78 | C15M | 2.82
79 | C15V | 2.67
80 | C15P | 3.1
81 | C15I | 3.13
82 | C15T | 3.29
83 | C15S | 3.7
84 | C15F | 2.98
85 | C15W | 2.59
86 | C15K | 3.55
87 | C15D | 3.87
88 | C15Y | 3.26
89 | C15A | 2.49
90 | C15H | 3.4
91 | C15Q | 3.37
92 | C15R | 2.61
93 | K20A | 1.97
94 | K20H | 1.91
95 | K20D | 2.83
96 | K20W | 1.88

Row | Variant | protein stability index
97 | K20C | 1.86
98 | K20T | 2.58
99 | K20E | 1.79
100 | K20P | 2.31
101 | K20F | 1.78
102 | K20L | 2.07
103 | K20V | 2.41
104 | K20Y | 1.9
105 | K20S | 2.12
106 | K20M | 2.79
107 | K20N | 2.37
108 | K20G | 1.61
109 | K20Q | 1.82
110 | K20R | 3.28
111 | K20I | 2.1
112 | Q24W | 2.12
113 | Q24V | 1.75
114 | Q24P | 2.87
115 | Q24T | 2.75
116 | Q24A | 2.55
117 | Q24G | 2.62
118 | Q24E | 2.88
119 | Q24F | 2.56
120 | Q24M | 2.77

Row | Variant | protein stability index
121 | Q24I | 1.68
122 | Q24N | 2.27
123 | Q24L | 2.36
124 | Q24D | 2.24
125 | Q24R | 1.67
126 | Q24S | 3.49
127 | Q24H | 2.12
128 | Q24C | 1.84
129 | Q24Y | 3.2
130 | N16C | 1.73
131 | N16R | 1.65
132 | N16K | 2.76
133 | N16H | 1.93
134 | N16I | 2.27
135 | N16D | 2.16
136 | N16F | 2.75
137 | N16A | 2.44
138 | N16T | 2.67
139 | N16P | 3.32
140 | N16E | 2.13
141 | N16G | 1.95
142 | N16M | 2.1
143 | N16Q | 2.98
144 | N16Y | 2.61

Row | Variant | protein stability index
145 | N16S | 3.03
146 | N16W | 2.04
147 | N16L | 1.85
148 | N16V | 2.86
149 | F22P | 3.03
150 | F22E | 3.02
151 | F22A | 3.02
152 | F22D | 3.12
153 | F22M | 2.28
154 | F22Y | 2.35
155 | F22G | 2.35
156 | F22I | 2.02
157 | F22R | 1.48
158 | F22S | 2.85
159 | F22Q | 2.88
160 | F22H | 3.05
161 | F22L | 1.82
162 | F22W | 1.74
163 | F22C | 3.22
164 | F22N | 3.51
165 | F22V | 3.59
166 | F22T | 2.49
167 | F22K | 3.37
168 | G19C | 2.38

Row | Variant | protein stability index
169 | G19H | 2.92
170 | G19I | 3.3
171 | G19F | 2.38
172 | G19R | 2.6
173 | G19M | 2.73
174 | G19E | 2.68
175 | G19T | 2.4
176 | G19S | 2.06
177 | G19D | 3.4
178 | G19Y | 2.7
179 | G19P | 2.67
180 | G19V | 2.09
181 | G19N | 2.48
182 | G19L | 2.72
183 | G19Q | 2.96
184 | G19A | 2.14
185 | G19W | 1.97
186 | G19K | 2.79

Variants of: B2
Experiment: as above
Conditions: c terminus: a fixed tail appended

Row | Variant | protein stability index
187 | F24E | 3.85
188 | F24N | 1.86
189 | L3E | 2.84
190 | L3P | 3.24
191 | L3V | 3.79
192 | L3D | 3.73
193 | L3I | 2.78
194 | L3N | 3.2
195 | L3H | 3.76
196 | L3Q | 2.99
197 | L3C | 2.54
198 | L19T | 1.82
199 | L19C | 2.05
200 | L19A | 3.32
201 | L19M | 2.76
202 | L19P | 3.45
203 | L19S | 3.48
204 | K23P | 3.73
205 | K23Y | 2.52
206 | K23W | 2.23
207 | K23T | 2.41
208 | K23I | 2.95
209 | Y22F | 2.59
210 | Y22N | 2.47
211 | Y22L | 3.17

Row | Variant | protein stability index
212 | Y22M | 3.54
213 | Y22W | 3.83
214 | Y21K | 2.65
215 | Y21W | 2.62
216 | Y21E | 2.28
217 | Y21G | 3.61
218 | Y21R | 2.32
219 | Y21H | 2.32
220 | Y21M | 2.58
221 | Y21I | 2.42
222 | Y21V | 2.17
223 | L5W | 1.86
224 | L5N | 3.71
225 | L5H | 3.13
226 | L5D | 2.64
227 | L5T | 3.88
228 | L5A | 2.22
229 | L5C | 2.61
230 | E12S | 2.68
231 | E12L | 2.33
232 | E12G | 1.55
233 | E12N | 1.44
234 | E12V | 2.85
235 | I7K | 2.41
236 | I7W | 3.61

Row | Variant | protein stability index
237 | I7H | 2.65
238 | I7Q | 2.44
239 | I7G | 3.04
240 | I7N | 2.1
241 | I7F | 2.31
242 | I7D | 2.84
243 | L11C | 2.36
244 | L11E | 3.84
245 | L11G | 2.94
246 | L11W | 3.2
247 | L11Q | 3.26
248 | G18T | 2.61
249 | G18I | 3.09
250 | G18L | 2.61
251 | G18N | 2.96
252 | G18H | 2.46
253 | G18S | 3.16
254 | G18Y | 1.86
255 | G18C | 3.99
256 | L13M | 3.13
257 | L13I | 3.27
258 | L13D | 2.7
259 | L13F | 3.1
260 | L13W | 3.72
261 | L13H | 3.39

Row | Variant | protein stability index
262 | L13Q | 2.92
263 | L13Y | 2.83
264 | L13V | 1.79
265 | L16W | 2.31
266 | L16M | 3.6
267 | L16S | 2.23
268 | L16G | 3.79
269 | L10R | 2.63
270 | L10H | 3.04
271 | L10K | 3.36
272 | L10A | 2.44
273 | K2A | 3.74
274 | K2I | 3.89
275 | K2H | 2.48
276 | K2F | 3.52
277 | K2P | 2.43
278 | K2W | 2.8
279 | K2N | 1.92
280 | K2E | 2
281 | K2R | 2.99
282 | V20D | 3.38
283 | V20A | 2.12
284 | V20T | 3.34
285 | V20S | 2.32
286 | V20P | 2.94

Row | Variant | protein stability index
287 | V20W | 2.84
288 | A14G | 3.17
289 | A14P | 2.64
290 | A14K | 2.48
291 | A14S | 2.35
292 | A14L | 3.61
293 | A14F | 3.19
294 | A14Q | 3.3
295 | A14W | 3.4
296 | S6A | 3.54
297 | S6K | 2.63
298 | S6C | 3.11
299 | S6Y | 2.76
300 | S6D | 2.42
301 | S6F | 2.67
302 | S6N | 2.47
303 | G17R | 2.35
304 | G17I | 2.35
305 | G17S | 3.45
306 | G17L | 3.46
307 | G17E | 3.26
308 | G17D | 1.51
309 | G17K | 3.17
310 | I9V | 3.42
311 | I9R | 3.19

Row | Variant | protein stability index
312 | I9P | 3.12
313 | I9H | 2.47
314 | I9C | 2.97
315 | I9N | 3.49
316 | I9Q | 3.18
317 | I9D | 3.1
318 | I15Q | 2.44
319 | I15M | 3.49
320 | I15V | 4.17
321 | I15L | 2.62
322 | I8L | 3.04
323 | I8E | 2.35
324 | I8G | 1.21
325 | L4I | 2.94
326 | L4W | 2.25
327 | L4K | 2.39
328 | L4T | 1.51
329 | L4N | 2.28
330 | L4F | 3.51
331 | L4Q | 3.91
332 | N1S | 2.63
333 | N1H | 3.67
334 | N1T | 3.56
